The text below walks through data of PMC4641729, “NurA Is Endowed with Endo- and Exonuclease Activities that Are Modulated by HerA: New Insight into Their Role in DNA-End Processing” (PLoS ONE, 2015).

A word on the stoichiometry N: it is a count of units in the complex or per binding partner.

To fix the notation:
B1: Sulfolobus solfataricus HerA (enzyme, UniProt Q97WG8 1-500, looked up)
chain: MIIGYVIGQATTQEALILAERPVRLGTYVVLEYDNVKALGLITNVTRGSPMLDDNMNDIEIVQRLKQFNNSIPVYTKAKVKMLCDMNNHFLMPDIPPFAGTPAREAEDEELKSIYSQDGQIRIGSLIGKNVEVKLNINSFARHLAILAATGSGKSNTVAVLSQRISELGGSVLIFDYHGEYYDSDIKNLNRIEPKLNPLYMTPREFSTLLEIRENAIIQYRILRRAFIKVTNGIREKLKEGQIPFSTLNSQFYELMKDELETQGNSDKKSSAKDEVLNKFEEFMDRYSNVIDLTSSDIIEKVKRGKVNVVSLTQLDEDSMDAVVSHYLRRILDSRKDFKRSKNSGLKFPIIAVIEEAHVFLSKNENTLTKYWASRIAREGRKFGVGLTIVSQRPKGLDENILSQMTNKIILKIIEPTDKKYILESSDNLSEDLAEQLSSLDVGEAIIIGKIVKLPAVVKIDMFEGKLLGSDPDMIGEWKKVEESEKIAKGFADFGTEIGD
notes: HerA ATPase, ORF SSO2251, Sulfolobus solfataricus strain P2; whole ORF amplified from genomic DNA with primers from the start codon to the stop codon, cloned BamHI/EcoRI into pet29a; 56 kDa as monomer; Hexamer in solution by gel filtration; Cloned at BamHI/EcoRI of pet29a, downstream of the vector's N-terminal S-tag; also called SSO2251; source: E. coli BL21-CodonPlus(DE3)-RIL, purified (heat …)
B2: 70mer EMI fork (70leadCy5/70 lag emi) (mixed)
DNA 1: CGTGACTTGATGTTAACCCTAACCCTAAGAATTCGGCTTAAGTGAGTGTGAGGATATCATGTACGATAGC
DNA 2: CACACTCACTTAAGCCGAATTCTTAGGGTTAGGGTTAACATCAAGTCACG
B3: 70mer bubble (70leadCy5/70 lag bubble) (mixed)
DNA 1: B2 DNA 1
DNA 2: GCTATCGTACATGATATCCTCACACTTTTTTTTTTTTTTTTTTTTGGGTTAGGGTTAACATCAAGTCACG
B4: Sulfolobus solfataricus NurA (enzyme, UniProt Q97WH1 1-339, looked up)
chain: MIRKIYDKLVESHNEIKNQIYNIANYLKQEIQDKVNEYWNEYVINHEQSETCKFVAIDGGSFGRPMRIGIVYAVGAESVIGDNKGVKTLSEDGQIGIFKPGNDAQERISLLMEALELSLALRDGSKGDYILMDGSLSKKIGNKVDIQQFSDEELKLIRNVDLNGIISIKDERKMRDLLMLLNQFLVSKIIEEYDGNVLWISKVSRGRDLFGTDYPDITVLELFTEKRGFSKLIIKNIDIEKISEIPEIEVLRKMEYTTFYTRLDNGKRVIRVDIVGRVDEKIVKEIMDRLSGVSIKGYPFPLLKAHMDVRFSAMDREKIIKLVGSKLHKDIEWWPSQFY
notes: NurA nuclease, ORF SSO2248, Sulfolobus solfataricus strain P2; whole ORF amplified from genomic DNA with primers from the start codon to the stop codon, cloned NdeI/BamHI into pet29a; 39 kDa as monomer; Dimer in solution by gel filtration; Cloned at NdeI with its own stop codon, so probably untagged (surmise); also called SSO2248; NurAwt; source: E. coli BL21-CodonPlus(DE3)-RIL, purified (heat …)

Series [1] deals with the molecule itself. Nature of the series: SEC; Superdex 200 10/300 GL gel filtration; 800 μg HerA and 200 μg NurA, separately or mixed, incubated at 60°C for 20 min before gel filtration; fractions analysed by SDS-PAGE. Background: Size exclusion chromatography separates by hydrodynamic size, large species first.
A further series deals with T1, HerA (Sulfolobus solfataricus P2, UniProt Q97WG8 1-500).
T1 sequence: B1 chain
The series can be described thus: EMSA; 5 mM MgCl2, 2 mM EDTA; preferred substrate; EMSA: 20 mM HEPES/NaOH pH 7.5, 3.5 mM beta-mercaptoethanol, 50 mM NaCl, 5 mM MgCl2, 2 mM EDTA, 2 pmol DNA in 10 ul, 10 min at room temperature (NurA+HerA: 20 min at 70 C, then DNA 30 min at room temperature); 5% PAGE, 0.5x TBE. To be noted: protein: recombinant, cloned BamHI/EcoRI in pET29a, so a vector-derived N-terminal extension is possible, chain copies: 6. On the technique in general: In EMSA bound probe runs differently from free probe, usually more slowly.

Series [2] has as its target B1. Nature of the series: SEC; Superdex 200 10/300 GL gel filtration; 800 μg HerA and 200 μg NurA, separately or mixed, incubated at 60°C for 20 min before gel filtration; fractions analysed by SDS-PAGE. To be noted: both partners purified.

Consider B1, for which the “stoichiometry N” value in series [1] turned out to be 6.

Turning to B2, the binding result with HerA (label: 5' Cy5 on strand 1, 3' overhang 20 nt on strand 1) is “binds”.

Regarding B3, the binding result with HerA (label: 5' Cy5 on strand 1, blunt ends, internal T-tract bubble) is “binds”.

For B4, the binding result in series [2] is recorded as “binds”. In addition, the “stoichiometry N” value in series [1] turned out to be 2.

In the case of GACGTGGGCAAAGGTTCGTCAATGGACTGACAGCTGCATGG (ssDNA) [ODN2 (single-stranded)], in the series with HerA (label: 5' Cy5, single strand), the binding result is reported as “binds”.
